From publication PMC10779054 come the findings set out here.

Series [1] has as its target SARS-CoV-2 nucleocapsid protein (SARS-CoV-2, UniProt P0DTC9 1-419). Kind of series: aptamer-immuno-PCR (mAb sandwich, qPCR); PBS + 0.1% Tween 20 (PBST); 1 h at 21 C ([…]) or 37 C ([…]. Conditions: protein: commercial; chain copies: 2.
A further series deals with Taq DNA polymerase (Thermus aquaticus, UniProt P19821 1-832). Description: qPCR of aptamer bound to immobilized protein; 50 nM aptamer; 0.5 ug Taq/well; 0.1% methylcellulose, BSA or Tween 20 block; PBS + 0.1% Tween 20 (PBST); 1 h at 21 C (44/70-Taq) or 37 C (NC aptamer-nucleocapsid); wells blocked with 0.1% BSA, Tween 20 or methylcellulose; PBST washes. Conditions: protein: commercial.

B1: NC aptamer (ssDNA)
DNA: GCAATGGTACGGTACTTCCGGATGCGGAAACTGGCTAATTGGTGAGGCTGGGGCGGTCGTGCAGCAAAAGTGCACGCTACTTTGCTAA
For B1, the binding result in series [1] is “binds”.

B2: 44/70 aptamer (ssDNA)
DNA: CCTTGAACCTGTGCCATTTGCTAATTGAGACTATTATGGGCTTTTTAGTCGAACAGTAGGAAGATGGAGG
Turning to B2, the binding result with Taq DNA polymerase is “binds”.
